According to patent US20150376286A1 (Amgen, published 2015):
Numbering of substitutions follows the chain as printed.

T1: cynomolgus CGRP receptor (cynoCRLR + cynoRAMP1) (cynomolgus monkey)
T1 chain 1: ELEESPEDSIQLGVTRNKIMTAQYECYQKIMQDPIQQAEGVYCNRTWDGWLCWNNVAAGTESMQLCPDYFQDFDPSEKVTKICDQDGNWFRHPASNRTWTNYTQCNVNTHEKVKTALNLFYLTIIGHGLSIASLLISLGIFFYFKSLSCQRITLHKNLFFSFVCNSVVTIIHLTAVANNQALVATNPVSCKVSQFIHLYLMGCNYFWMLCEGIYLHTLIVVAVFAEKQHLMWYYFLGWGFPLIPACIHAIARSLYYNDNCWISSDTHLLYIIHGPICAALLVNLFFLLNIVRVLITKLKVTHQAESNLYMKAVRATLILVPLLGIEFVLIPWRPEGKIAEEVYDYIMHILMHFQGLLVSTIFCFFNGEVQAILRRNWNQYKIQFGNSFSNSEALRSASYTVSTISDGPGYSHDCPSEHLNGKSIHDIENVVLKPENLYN
T1 chain 2: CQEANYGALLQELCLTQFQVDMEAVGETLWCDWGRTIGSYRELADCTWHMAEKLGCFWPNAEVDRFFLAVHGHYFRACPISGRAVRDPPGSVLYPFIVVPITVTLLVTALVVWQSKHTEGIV

B1: 4H6 (antibody, human IgG2, kappa, V domains shown)
VH: EVQLVESGGGLVKPGRSLRLSCTASGFTFGDYAMSWFRQAPGKGLEWIGFIRSRAYGGTPEYAASVKGRFTISRDDSKTIAYLQMNSLKTEDTAVYFCARGRGIAARWDYWGQGTLVTVSS
VL: not shown
notes: also called 04H6; 04H6.1
B2: 1E11 (antibody, human IgG2, lambda, V domains shown)
VH: QVQLVESGGGVVQPGRSLRLSCAASGFTFSSFGMHWVRQAPGKGLEWVAVISFDGSIKYSVDSVKGRFTISRDNSKNTLFLQMNSLRAEDTAVYYCARDRLNYYDSSGYYHYKYYGMAVWGQGTTVTVSS
VL: QSVLTQPPSVSEAPGQKVTISCSGSSSNIGNNYVSWYQQLPGTAPKLLIYDNNKRPSGIPDRFSGSKSGTSATLGITGLQTGDEADYYCGTWDSRLSAVVFGGGTKLTVLG
notes: also called 01E11; 01E11.2
B3: 9D4 (antibody, human IgG2, lambda, V domains shown)
VH: B2 VH
VL: B2 VL with E12A, L40F
notes: also called 09D4; 09D4.2
B4: 5F5 (antibody, human IgG2, kappa, V domains shown)
VH: QVQLVESGGGVVQPGRSLRLSCAASGFTFSSYGMHWVRQAPGKGLEWVAVISYDGSHESYADSVKGRFTISRDISKNTLYLQMNSLRAEDTAVYFCARERKRVTMSTLYYYFYYGMDVWGQGTTVTVSS
VL: DIILTQTPLSLSVTPGQPASISCKSSQSLLHSDGKTYLYWYLQKPGQPPQLLIYEVSNRFSGEPDRFSGSGSGTDFTLKISRVEAEDVGTYYCMQSFPLPLTFGGGTKVEIKR
notes: also called 05F5; 05F5.1
B5: 12E8 (antibody, human IgG2, kappa, V domains shown)
VH: B4 VH
VL: B4 VL with I3T, T14S, K35R, T36N, E63L, T90I
notes: also called 12E8.2
B6: 13H2 (antibody, human IgG2, kappa, V domains shown)
VH: EVQLVESGGGLVKPGGSLRLSCAASGYTFSTYSMNWVRQAPGKGLEWVSSISSSSSYRYYADSVKGRFTISRDNAKNSLYLQMSSLRAEDTAVYYCAREGVSGSSPYSISWYDYYYGMDVWGQGTTVTVSS
VL: DIQMTQSPSSLSASVGDRVTITCRASQGIRKDLGWYQQKPGKAPKRLIYGASSLQSGVPSRFSGSGSGTEFTLTISSLQPEDFATYYCLQYNSFPWTFGQGTKVEIKR
notes: also called 13H2.2
B7: 2E7 (antibody, human IgG2, kappa, V domains shown)
VH: EVQLLESGGGLVQPGESLRLSCAASGFTFSSYAMSWVRQAPGKGLEWVSAISGSGGRTYYADSVKGRFTISRDNSKNTLYLQMNSLRAEDTAVYYCAKDQREVGPYSSGWYDYYYGMDVWGQGTTVTVSS
VL: B6 VL with K31N, Y36F, G50A, F83L, S93I, F94Y
notes: also called 02E7; 02E7.2
B8: 10E4 (antibody, human IgG2, lambda, V domains shown)
VH: QVQLVQSGAEVKKPGASVKVSCKASGYTFTDYYMYWVRQAPGQGLEWMGWISPNSGGTNYAQKFQGRVTMTRDTSISTAYMELSRLRSDDTAVYYCVRGGYSGYAGLYSHYYGMDVWGQGTTVTVSS
VL: not shown
B9: 3C8 (antibody, human IgG2, kappa, V domains shown)
VH: B4 VH
VL: B4 VL with T5A, D33A, E63V, T90I

The binders below were run against T2, human CGRP receptor (CRLR + RAMP1) (human, UniProt Q16602 23-461; O60894 27-148) (assay: cell-based or functional assay).

Row | cAMP assay IC50 [nM] | Binder
1 | 3.78 | B1
2 | 1.77 | B2
3 | 1.4 | B3
4 | 4.79 | B4
5 | 2.93 | B5
6 | 1.95 | B6
7 | 6.3 | B7

Target: T1, cynomolgus CGRP receptor (cynoCRLR + …)
Experiment: cell-based or functional assay

Row | cAMP assay IC50 [nM] | Binder
8 | 5.59 | B1
9 | 2.79 | B2
10 | 2.46 | B3
11 | 3.23 | B8
12 | 4.78 | B4
13 | 5.32 | B9
14 | 4.13 | B5
15 | 8.41 | B6
16 | 5.51 | B7

What follows are binders tested against rat CGRP receptor (rat, UniProt Q63118 24-464; Q9JJ74 27-148) (assay: cell-based or functional assay).

Row | cAMP assay IC50 [nM] | Binder
17 | > 1000 | B1
18 | > 1000 | B2
19 | > 1000 | B3
20 | > 1000 | B8
21 | > 1000 | B4
22 | > 1000 | B9
23 | > 1000 | B5
24 | > 1000 | B6
25 | > 1000 | B7

The binders below were run against human amylin AMY1 receptor (hCTR + hRAMP1) (human, UniProt P30988 25-474) (assay: cell-based or functional assay).

Row | cAMP assay IC50 [nM] | Binder
26 | > 1000 | B1
27 | > 1000 | B2
28 | > 1000 | B3
29 | > 1000 | B8
30 | > 1000 | B4
31 | > 1000 | B9
32 | > 1000 | B5
33 | > 1000 | B6
34 | > 1000 | B7

What follows are binders tested against human adrenomedullin receptor 1 (hCRLR + hRAMP2) (human, UniProt O60895 43-175) (assay: cell-based or functional assay).

Row | cAMP assay IC50 [nM] | Binder
35 | > 1000 | B1
36 | > 1000 | B2
37 | > 1000 | B3
38 | > 1000 | B8
39 | > 1000 | B4
40 | > 1000 | B9
41 | > 1000 | B5
42 | > 1000 | B6
43 | > 1000 | B7

Each binder was assayed against human adrenomedullin receptor 2 (hCRLR + hRAMP3) (human, UniProt O60896 24-148) (assay: cell-based or functional assay).

Row | cAMP assay IC50 [nM] | Binder
44 | > 1000 | B1
45 | > 1000 | B2
46 | > 1000 | B3
47 | > 1000 | B8
48 | > 1000 | B4
49 | > 1000 | B9
50 | > 1000 | B5
51 | > 1000 | B6
52 | > 1000 | B7

Target: T2, human CGRP receptor (CRLR + RAMP1)
Experiment: cell-based or functional assay
Remark: another data set of the same source

Row | IC50 (read off the curve) [nM] | Binder
53 | ~1 | B2
54 | ~6 | B6

These binders were tested against T2, human CGRP receptor (CRLR + RAMP1) (assay: 125I-CGRP competition binding, HTB-10 cell membranes).
Experimental: (§1) The plates were incubated at room temperature for 2 hours with shaking at 60 rpm, and then the contents of each well were filtered over 0.5% polyethyleneimine (PEI)-treated (for at least one hour) GF/C 96-well filter plates. The GF/C filter plates were washed six times with ice-cold 50 mM Tris, pH 7.5 and dried in an oven at 55° C. for 1 hour. The bottoms of the GF/C plates were then sealed. 40 μl Microscint™ 20 was added to each well, the tops of the GF/C plates were sealed with TopSeal™-A (a press-on adhesive sealing film), and the GF/C plates were counted with TopCount NXT (Packard). The data were analyzed using Prizm (GraphPad Software Inc.)

Row | Ki [nM] | Binder
55 | 0.052 | B1
56 | 0.03 | B2
57 | 0.023 | B3
58 | 0.147 | B4
59 | 0.097 | B5
60 | 0.033 | B6
61 | 0.117 | B7

Each binder was assayed against T2, human CGRP receptor (CRLR + RAMP1) (assay: FACS on AM-1 CHO huCGRP R cells, KinExA n-curve analysis).
Experimental: Briefly, AM-1 CHO huCGRP R-expressing cells, prepared as described above, were plated in 96-well plates at densities of 16,000 or 160,000 cells per well in DMEM medium containing 10% FBS, NEAA, PS, L Glut, NaPyr and 0.05% sodium azide. […] After an overnight incubation at 4° C. in a total volume of 120 μl, on a plate shaker, the cells were washed 2× with PBS+2% FBS, centrifuging and discarding supernatant each time. 100 μl/well of G anti-Hu Fc Cy5 (5 μg/mL; Jackson ImmunoResearch Laboratories Inc., West Grove, Pa., USA) containing 7AAD (5 μl/well) was then added and incubated at 4° C. for 40 min. The cells were washed 2× with PBS+2% FBS, centrifuging and discarding the supernatant each time. 100 μl PBS+2% FBS buffer was then added and analyzed by FACS to determined the binding geomean. The Kd was calculated using KinExA software by taking the negative geomean at each antibody concentration as the amount of free Ab present Rathanaswami, et al., Biochemical and Biophysical Research Communications 334 (2005) 1004-1013.

Row | Kd [nM] | Binder
62 | 2.4 | B1
63 | 2.5 | B3
64 | 2.3 | B5
65 | 1.5 | B7

These binders were tested against T2, human CGRP receptor (CRLR + RAMP1) (assay: radioligand competition: 125I-CGRP binding to human CGRP receptor on HTB-10 cell membranes, antibody as competitor).
Experimental: as §1

Row | IC50 (read off the curve) [nM] | Binder
66 | ~0.03 | B2
67 | ~0.1 | B6
